US20200223906A1 (Adimab, published 2020)

Experiments:
[1] = molecular target: RSV F protein of subtype A (strain A2) on recombinant mKate-RSV (respiratory syncytial virus subtype A …, UniProt P03420 26-574); assay: cell-based or functional assay
[2] = molecular target: RSV F protein of subtype B (18537) on recombinant mKate-RSV (respiratory syncytial virus subtype B …, UniProt P13843 26-574); assay: cell-based or functional assay
[3] = molecular target: T1, RSV F ectodomain stabilized in the postfusion conformation (F ΔFP), subtype B (respiratory syncytial virus subtype B, UniProt P13843 26-109; P13843 147-524); assay: BLI (Octet), IgG on AHQ sensor, 100 nM antigen
T1 construct: extracellular domain; Trimer; also called Postfusion subtype B

[4] = molecular target: T2, RSV F ectodomain stabilized in the postfusion conformation (F ΔFP), subtype A (respiratory syncytial virus subtype A, UniProt P03420 26-109; P03420 147-524); assay: BLI (Octet), IgG on AHQ sensor, 100 nM antigen
T2 construct: extracellular domain; Trimer; also called Postfusion subtype A

| Binder | Neut IC50 subtype A [1] | Neut IC50 subtype B [2] | Kd [3] | Kd [4] |
| --- | --- | --- | --- | --- |
| ADI-18984 (antibody, V domains shown, full-length IgG) VH: QVQLQESGPGLVKPSETLSLTCTVSGASVTTNTYYWTWIRQPPGKELEWIGYIHHTGNTHYNPSLESRLTMSLDTSRNQFSLNLRSATTADTAVYYCARGEHFAYWWGNWGQGALVTVSS VL: DIRVTQSPSSVSASVGDRVTITCRASQGIARWLAWYQQKPGKAPKLLIYAASSLQGGVPSRFSGSGYGTDFTLTISSLQPEDFATYYCQQANSFPRTFGQGTKVEIK | > 10 µg/mL | > 10 µg/mL | 0.659 nM |  |
| ADI-18989 (antibody, V domains shown, full-length IgG) VH: EVQLVESGGGLVQPGGSLRLSCAASGFSFNTYSMNWVRQAPGKGLEWLSFISSSSHTLYYADSVKGRFTVFRDNAKHSLFLQMNGLRDEDTAVYFCARSLGSGNYDNEDQTFYYYYGMDVWGQGTTVTVSS VL: ETTLTQSPLSLPVTPGEPASISCRSSQSLLFHSNGHNYLDWYLQKPGQSPQLLIHLGSNRASGVPDRFSGSGSGTDFTLKISRVEPEDVGVYYCMQALQTPYTFGQGTKVEIK | > 10 µg/mL | > 10 µg/mL | 0.377 nM |  |
| ADI-18995 (antibody, V domains shown, full-length IgG; also called Antibody Number 343) VH: EVQLVESGPGLVKPSETLSLSCIVSGGSITSGDYYWSWLRQSPGKGLEWIGYIYHSGATFYTPSLRSRVTISTDTSKNQFSLRLSSVTAADTAVYYCASGPVGMATSNWFDPWGQGTLVTVSS VL: SYELTQPPSVSVAPGKTATITCGGDIIRTNSVNWYQQKPGQAPLLLIYYDSDRPSGIPERFSASNSGNTATLTISRVEAGDEADYYCQVWDSGTDYHVVFGGGTKLTVQ | 0.043 µg/mL | 0.125 µg/mL |  | 12.3 nM |
| ADI-19001 (antibody, V domains shown, full-length IgG; also called Antibody Number 349) VH: EVQLVESGGGLVKPGRSLRLSCTASGFNFGDYAMSWFRQAPGKGLEWVGFIRSKTYRETREYAASVKGRFTMSRDDFNRIAYLQMNSLKTEDTAMYYCTRQDDFWSGHPYYFEYWGQGTLVTVSS VL: QPVLTQPPSASGSPGQSVTISCTGTNSDVGSYNYVSWYQHHPGKAPKLIIYDVAKRPSGVPDRFSGSKSGNTASLTVSGLQAEDEADYYCSSYAGSNDLGVFGTGTKLTVL | > 10 µg/mL | 3.26 µg/mL | 0.149 nM |  |
| ADI-19012 (antibody, V domains shown, full-length IgG; also called Antibody Number 360) VH: EVQLVESGPGLVKPSGTLSLTCAVSGDSIVGSDWWSWIRQPPGKGLEWIGDIYHGGTTSYNPSLKSRVTMSVDKSKNQFSLKLTSVTAADTAVYYCARLSGNCSGGSCYSPFDHWGQGTLVTVSS VL: DIQMTQSPSSLSASVGDRVTITCRASQTINGYLNWYQQRPGKAPKLLISAASSLQSGVPSRFRGSGYGTDFTLTISSLQPEDFATYFCQQSYNTVYTFGQGTKVDIK | > 10 µg/mL | > 10 µg/mL | 0.314 nM |  |
| ADI-19013 (antibody, V domains shown, full-length IgG; also called Antibody Number 361) VH: QVQLVQSGAEVKKPGESLKISCKGSGYSFSSYWIGWVRQMPGKGLEWMGIIYPGDSDTRYSPSLQGQVTISGDKSISTAFLQWSSLKASDTAMYYCARPMTTQEGFDLWGQGTMVTVSS VL: DIRLTQSPSSVSASVGDRVTITCRASQGISDWLAWYQQKPGKAPKLLIYAASSLQSGVPSRFSGSGSGTDFTLTISSLQPEDFATYYCQQTNSFLPLTFGGGTKVDIK | 9.5 µg/mL | > 10 µg/mL | 0.583 nM |  |
| ADI-19014 (antibody, V domains shown, full-length IgG; also called Antibody Number 362) VH: EVQLVESGPRLVKPSQTLSLTCTVYGGSISGGQNYYSWVRQPPGKGLEWIGYIFSSGTTYYKPSLKSRISISFDTSKNQFSLNLASVTAADTAVYFCARSADIDIVWGSSLYMPLWGQGTLVTVSS VL: EIVLTQSPGTLSLSPGQRATLSCRATHIVSNSYLAWYQQKPGQAPRLLIHGVSIRATGIPDRFSGSGSGTDFTLTISRLEPEDFAVYFCQQYGTSPWTFGQGTKLEIK | 1.75 µg/mL | > 10 µg/mL | 0.277 nM |  |
